Results taken from paper PMC9606172, “Recombinant acetylxylan esterase of Halalkalibacterium halodurans NAH-Egypt: molecular and biochemical study” (AMB Express, 2022).

Substrate: CC(=O)Oc1ccc([N+](=O)[O-])cc1
Experiment: purified protein
Type: biochemical, Halalkalibacterium halodurans
Conditions: 30 mM Tris-HCl pH 8.0 (general assay), temperature for the Km not given

B1: AXE-HAS10 (Halalkalibacterium halodurans C-125) (protein)
chain: MPLIDMPLTELKEYMGRNPKPDDFTEYWDRALQEMRKVNPNVELIPSDFQTTYAECFHLYFTGVRGARIHAKYVRPRHTSGTHPAVIHFHGYTMNAGEWTGLLHYAALGYSVLAMDVRGQGGLSEDTGGVKGNTHSGHIIRGLDDNADQLLFRHVFLDTAQLANIVMNLPEVDEERVAVTGWSQGGALAIACAALEPKIKKVAPVYPFLSDYQRVWEMDLAEKAYDELQTYFRRFDPQHRREAEIFTKLGYIDIQHLAPLVKGEVLLAVGLMDTVCPPSTQFAMYNKLTTTKSIELYPDFAHEDLPGHRDRIFQFLSDL
notes: full-length ORF, 319 residues, no signal peptide; pET-28a(+) His6 fusion, 33 extra residues N-terminal and 9 C-terminal; E. coli BL21 (DE3) Rosetta; EC 3.1.1.72, CE7
  Km: 96 µM
  kcat: 63.1 s⁻¹
  kcat/Km: 657000 M⁻¹ s⁻¹
